Target: T1, HLA-A*02:01 (human)
T1 construct: monomers captured on streptavidin plates; also called MHC class I
Test: UV peptide exchange ELISA
In short: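 Peptide-MHC complexes formed by UV-triggered exchange of a cleavable peptide for the test peptide, with stabilised complexes indicating binding. Exchange products diluted 100 fold onto streptavidin-coated wells, 1h at 37° C.; HRP anti-β2m (2 μg/ml), TMB, absorbance at 450 nm gives exchange yield.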

## ILVANAIVGV
  peptide exchange yield: 50 to 75%

## TLAPGEVLRSV
  peptide exchange yield: 50 to 75%

## LLMPSSEDLLL
  peptide exchange yield: 50 to 75%

## FLLEPGNLEV
  peptide exchange yield: ≥ 75%

## VIADGGIQNV
  peptide exchange yield: 20 to 50%

## WLLPYNGVTV
  peptide exchange yield: 50 to 75%

## ILDPISSGFLL
  peptide exchange yield: 20 to 50%

## YTLPIASSIRL
  peptide exchange yield: 50 to 75%

## VLLEAGEGLVTI
  peptide exchange yield: 50 to 75%

## AMLENASDIKL
  peptide exchange yield: 50 to 75%

## SLLNQDLHWSL
  peptide exchange yield: ≥ 75%

## LLLAHIIAL
  peptide exchange yield: 20 to 50%

## ALWDIETGQQTTT
  peptide exchange yield: 50 to 75%

## YLISQVEGHQV
  peptide exchange yield: 50 to 75%

## SMLEPVPEL
  peptide exchange yield: 50 to 75%

## VTVPPGPSL
  peptide exchange yield: 20 to 50%

## GLLENIPRV
  peptide exchange yield: 50 to 75%

## ALANQIPTV
  peptide exchange yield: 20 to 50%

## YLEELPEKLKL
  peptide exchange yield: 50 to 75%

## VMYADIGGMDI
  peptide exchange yield: 50 to 75%

## GLLPTPITQQASL
  peptide exchange yield: 50 to 75%

## FLYDEIEAEVNL
  peptide exchange yield: 50 to 75%

## TVTNAVVTV
  peptide exchange yield: 50 to 75%

## YVLEGLKSV
  peptide exchange yield: 50 to 75%

## LLLTTIPQI
  peptide exchange yield: 50 to 75%

## YLLQEPPRTV
  peptide exchange yield: 20 to 50%

## VMIAGKVAVV
  peptide exchange yield: 50 to 75%

## YLQLTQSEL
  peptide exchange yield: 50 to 75%

## LLADELITV
  peptide exchange yield: 50 to 75%

## SVAEGRALMSV
  peptide exchange yield: 50 to 75%

## ALQETPTSV
  peptide exchange yield: 20 to 50%

## FLTDLEDLTL
  peptide exchange yield: 50 to 75%

## VMFEDGVLMRL
  peptide exchange yield: 50 to 75%

## TLYDIAHTPGV
  peptide exchange yield: ≥ 75%

## SLWQDIPDV
  peptide exchange yield: 50 to 75%

## TLDITPHTV
  peptide exchange yield: 50 to 75%

## ILTEENIHL
  peptide exchange yield: 50 to 75%

## SLLPLDDIVRV
  peptide exchange yield: 50 to 75%

## ALFDAQAQV
  peptide exchange yield: 50 to 75%

## GLLDLPFRVGV
  peptide exchange yield: ≥ 75%

## LLADLLHNV
  peptide exchange yield: 50 to 75%

## KLVDRTWTL (probably a misprint of W as VV)
  peptide exchange yield: 50 to 75%

## RVWDISTVSSV
  peptide exchange yield: 50 to 75%

## KLYDDMIRL
  peptide exchange yield: 50 to 75%

## ALWENPESGEL
  peptide exchange yield: 20 to 50%

## VLSSLEINI
  peptide exchange yield: 20 to 50%

## ALIENLTHQI
  peptide exchange yield: 20 to 50%

## VLLQKIVSA
  peptide exchange yield: 50 to 75%

## YQIPRTFTL
  peptide exchange yield: 20 to 50%

## ILLNNSGQIKL
  peptide exchange yield: ≥ 75%

## LLWDVPAPSL
  peptide exchange yield: 50 to 75%

## KLYESLLPFA
  peptide exchange yield: 50 to 75%

## ALADLIEKELSV
  peptide exchange yield: 50 to 75%

## RLAEVGQYEQV
  peptide exchange yield: 20 to 50%
